From PMC2909360

Key:
[1] = target: purified bovine cathepsin B (bovine)
[2] = target: recombinant human cathepsin S (human) (UniProt P25774)
purified papain = target: T1, purified papain (UniProt P00784)
T1 sequence: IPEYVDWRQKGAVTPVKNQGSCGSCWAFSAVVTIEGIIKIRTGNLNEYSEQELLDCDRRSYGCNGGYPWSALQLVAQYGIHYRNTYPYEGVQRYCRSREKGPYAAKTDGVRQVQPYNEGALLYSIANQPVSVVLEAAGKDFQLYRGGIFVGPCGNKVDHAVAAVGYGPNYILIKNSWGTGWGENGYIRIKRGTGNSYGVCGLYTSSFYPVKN

[3] = target: recombinant human cathepsin L (human) (UniProt P07711)
[4] = target: T2, purified human cathepsin H (human)
T2 sequence (P09668 116-335, looked up): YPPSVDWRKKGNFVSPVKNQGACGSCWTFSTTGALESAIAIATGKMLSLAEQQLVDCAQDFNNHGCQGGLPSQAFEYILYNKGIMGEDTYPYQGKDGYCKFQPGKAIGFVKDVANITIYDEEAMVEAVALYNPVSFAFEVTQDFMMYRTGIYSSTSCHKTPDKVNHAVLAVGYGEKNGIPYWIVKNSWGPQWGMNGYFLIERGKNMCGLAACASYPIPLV

[5] = target: purified bovine cathepsin C (bovine)
[6] = target: sialostatin L (Ixodes scapularis) (UniProt Q8MVB6); assay: crystal structure

Chain of purified chicken egg white cystatin (P01038 24-139): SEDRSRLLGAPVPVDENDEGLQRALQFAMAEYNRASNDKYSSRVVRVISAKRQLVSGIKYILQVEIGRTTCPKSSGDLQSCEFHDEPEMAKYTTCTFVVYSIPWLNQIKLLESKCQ
Chain of purified bovine cathepsin C (bovine) (Q3ZCJ8 25-463): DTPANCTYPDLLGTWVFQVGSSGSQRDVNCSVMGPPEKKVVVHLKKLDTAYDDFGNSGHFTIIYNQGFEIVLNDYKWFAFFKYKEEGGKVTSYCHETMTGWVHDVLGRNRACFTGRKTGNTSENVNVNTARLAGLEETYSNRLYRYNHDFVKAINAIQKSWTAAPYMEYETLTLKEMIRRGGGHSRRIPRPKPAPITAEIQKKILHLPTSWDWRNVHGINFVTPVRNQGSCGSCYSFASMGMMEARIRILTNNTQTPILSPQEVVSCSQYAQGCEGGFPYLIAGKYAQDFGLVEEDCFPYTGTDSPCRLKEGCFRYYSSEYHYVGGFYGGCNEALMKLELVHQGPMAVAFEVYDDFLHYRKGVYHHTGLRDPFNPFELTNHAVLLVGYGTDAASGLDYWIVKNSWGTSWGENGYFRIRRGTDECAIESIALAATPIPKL
Chain of recombinant human cathepsin S (human) (P25774 17-331): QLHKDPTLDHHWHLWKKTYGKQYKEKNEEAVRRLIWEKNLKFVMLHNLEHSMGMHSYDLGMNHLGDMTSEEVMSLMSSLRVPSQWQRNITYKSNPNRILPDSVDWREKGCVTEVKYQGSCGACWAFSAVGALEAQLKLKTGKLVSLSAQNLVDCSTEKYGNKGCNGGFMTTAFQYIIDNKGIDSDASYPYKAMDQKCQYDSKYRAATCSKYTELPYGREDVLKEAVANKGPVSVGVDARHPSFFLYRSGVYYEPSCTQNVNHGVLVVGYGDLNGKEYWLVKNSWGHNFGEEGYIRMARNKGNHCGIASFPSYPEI
Chain of recombinant human cathepsin L (human) (P07711 18-333): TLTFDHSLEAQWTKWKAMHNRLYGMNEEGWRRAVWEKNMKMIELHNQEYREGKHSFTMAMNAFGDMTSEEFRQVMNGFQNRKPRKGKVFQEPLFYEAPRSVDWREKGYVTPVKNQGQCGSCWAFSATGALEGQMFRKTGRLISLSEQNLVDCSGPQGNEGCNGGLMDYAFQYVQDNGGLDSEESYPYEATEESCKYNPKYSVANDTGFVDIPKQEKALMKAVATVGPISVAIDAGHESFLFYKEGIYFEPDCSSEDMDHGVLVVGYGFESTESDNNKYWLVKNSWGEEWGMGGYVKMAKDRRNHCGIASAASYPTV

IC50 of inhibition of enzyme activity (fluorogenic substrate) [1] [nM] | IC50 of inhibition of enzyme activity (fluorogenic substrate) [2] [nM] | IC50 of inhibition of enzyme activity (fluorogenic substrate) (purified papain) [nM] | IC50 of inhibition of enzyme activity (fluorogenic substrate) [3] [nM] | IC50 of inhibition of enzyme activity (fluorogenic substrate) [4] [nM] | IC50 of inhibition of enzyme activity (fluorogenic substrate) [5] [nM] | Substance | stoichiometry N [6]
800 | 3.2 | 4.4 | 2.9 | 39 | 3.1 | purified chicken egg white cystatin (from UniProt P01038 24-139) (natural protein) | 
 |  |  |  |  |  | sialostatin L (from UniProt Q8MVB6 20-133) (natural protein) | 2
